# B1: Telisotuzumab analog-ADC (conjugate, chains of the INN, looked up)
# VH: QVQLVQSGAEVKKPGASVKVSCKASGYIFTAYTMHWVRQAPGQGLEWMGWIKPNNGLANYAQKFQGRVTMTRDTSISTAYMELSRLRSDDTAVYYCARSEITTEFDYWGQGTLVTVSS
# VL: DIVMTQSPDSLAVSLGERATINCKSSESVDSYANSFLHWYQQKPGQPPKLLIYRASTRESGVPDRFSGSGSGTDFTLTISSLQAEDVAVYYCQQSKEDPLTFGGGTKVEIK
# modifications: antibody-drug conjugate payload
# B2: Amivantamab: Amivantamab (Janssen, Reference No.: LFS0L03), bispecific antibody targeting EGFR and MET (antibody, chains of the INN, looked up, V domains shown)
# VH: QVQLVESGGGVVQPGRSLRLSCAASGFTFSTYGMHWVRQAPGKGLEWVAVIWDDGSYKYYGDSVKGRFTISRDNSKNTLYLQMNSLRAEDTAVYYCARDGITMVRGVMKDYFDYWGQGTLVTVSS
# VL: AIQLTQSPSSLSASVGDRVTITCRASQDISSALVWYQQKPGKAPKLLIYDASSLESGVPSRFSGSESGTDFTLTISSLQPEDFATYYCQQFNSYPLTFGGGTKVEIK
# VH2: QVQLVQSGAEVKKPGASVKVSCETSGYTFTSYGISWVRQAPGHGLEWMGWISAYNGYTNYAQKLQGRVTMTTDTSTSTAYMELRSLRSDDTAVYYCARDLRGTNYFDYWGQGTLVTVSS
# VL2: DIQMTQSPSSVSASVGDRVTITCRASQGISNWLAWFQHKPGKAPKLLIYAASSLLSGVPSRFSGSGSGTDFTLTISSLQPEDFATYYCQQANSFPITFGQGTRLEIK
# Key:
# NUGC-4 cells = test: NUGC-4 xenograft model (gastric cancer); type: in vivo, B-NDG mice; details: 3 mg/kg i.v. QW x2
# [1] = tested on: patient-derived ampullary tumor fragments; test: Human ampullary carcinoma PDX model; type: in vivo, B-NDG mice; details: 10 mg/kg i.v. BIW x4
# Description: The ADCs were tested for their effect in human ampullary carcinoma PDX model.
# The mice were then injected with PBS, ADCs or Amivantamab (Janssen, Cat #: LFS0L03) by intravenous (i.v.) administration.
# NCI-H1975 cells = test: NCI-H1975 xenograft in Balb/c nude mice; type: in vivo; details: 10 mg/kg, BIW, 4 administrations, i.v.
# Description: The mice were then injected with PBS, E-6C4-M-2F II-ADC (1.5 mg/kg, 3 mg/kg or 6 mg/kg, QW, 2 administrations in total) or Amivantamab (Janssen, Reference No.: LFS0L03) (10 mg/kg, BIW, 4 administrations in total) by intravenous (i.v.) administration.
# [2] = tested on: patient-derived gastric tumor fragments; test: Human gastric cancer PDX model; type: in vivo, B-NDG mice; details: 10 mg/kg i.v. BIW x6
# Description: The mice were then injected with PBS, ADCs or Amivantamab (Janssen, Reference No.: LFS01L03) by intravenous (i.v.) administration.
Molecule,Tumor volume Day 14 (NUGC-4 cells) [mm^3],TGI (%) (NUGC-4 cells; Day 28),Tumor volume Day 0 (NUGC-4 cells; day of grouping) [mm^3],Tumor volume Day 28 (NUGC-4 cells; end of experiment) [mm^3],Tumor-free (Day 28) (NUGC-4 cells; number of tumor-free mice/total),Tumor volume Day 14 [1] [mm^3],Tumor volume Day 21 [1] [mm^3],TGI (%) ([1]; Day 21),Tumor volume Day 0 ([1]; day of grouping) [mm^3],TGI (NCI-H1975 cells) [%],Tumor volume Day 28 [2] [mm^3],Tumor volume Day 56 [2] [mm^3],TGI (%) ([2]; Day 56),Tumor volume Day 0 ([2]; day of grouping) [mm^3],Survival ([2]; surviving/total mice)
B1,60 ± 10,108.1,198 ± 14,88 ± 67,0/5,–,–,–,–,–,–,–,–,–,–
B2,–,–,–,–,–,756 ± 78,1047 ± 104,8,273 ± 13,12.9,40 ± 6,643 ± 391,86.3,262 ± 24,5/5
